# Experimental data as given in patent CN111840217A (BEIJING EASTERN BIOTECH CO LTD, dated 2020).
# Substitutions are numbered along the chain they refer to.
# B1: 上市产品Brodalumab的全抗体 (antibody, V domains shown)
# VH: QVQLVQSGAEVKKPGASVKVSCKASGYTFTRYGISWVRQAPGQGLEWMGWISTYSGNTNYAQKLQGRVTMTTDTSTSTAYMELRSLRSDDTAVYYCARRQLYFDYWGQGTLVTVSS
# VL: EIVMTQSPATLSVSPGERATLSCRASQSVSSNLAWFQQKPGQAPRPLIYDASTRATGVPARFSGSGSGTDFTLTISSLQSEDFAVYYCQQYDNWPLTFGGGTKVEIK
# B2: mAb-9全抗体 (antibody, human IgG1, kappa, V domains shown)
# VH: B1 VH with F29W, R31S, Q62K, L64F, Q65L, Q100V, Y102R, F103L
# VL: DIQMTQSPSSLSASVGDRVTITCRASQSVHTGLNWYQQKPGKAPKLLIYGASNLQSGVPSRFSGSGSGTDFTLTISSLQPEDFATYYCQQFEHNPLTFGQGIKVEIKR
# B3: mAb-8全抗体 (antibody, human IgG1, kappa, V domains shown)
# VH: B1 VH with T28G, T30A, R31S, Y32R, Q62K, L64F, Q65E, Q100V, Y102R, F103L
# VL: B2 VL
# B4: mAb-10全抗体 (antibody, human IgG1, kappa, V domains shown)
# VH: B1 VH with T28S, T30S, R31S, Q62K, L64F, Q65K, Q100V, Y102R, F103L
# VL: B2 VL
# B5: mAb-11全抗体 (antibody, human IgG1, kappa, V domains shown)
# VH: B1 VH with T28A, F29W, Q62K, L64F, Q65K, Q100V, Y102R, F103L
# VL: B2 VL
# B6: mAb-4全抗体 (antibody, human IgG1, kappa, V domains shown)
# VH: B1 VH with T28A, F29Y, T30S, R31N, Q62K, L64F, Q65I, Q100V, Y102R, F103L
# VL: DIQMTQSPSSLSASVGDRVTITCRASQDIDSSLNWYQQKPGKAPKLLIYAASNRESGVPSRFSGSGSGTDFTLTISSLQPEDFATYYCQQWANMPGTFGQGTKVEIKR
# B7: mAb-1全抗体 (antibody, human IgG1, kappa, V domains shown)
# VH: B1 VH with T28S, F29Y, T30S, R31N, A61S, Q62K, Q65K, Q100V, Y102R, F103L
# VL: B6 VL
# B8: mAb-2全抗体 (antibody, human IgG1, kappa, V domains shown)
# VH: B1 VH with T28A, F29W, Q62K, L64F, Q65K, Q100V, Y102R, F103L
# VL: B6 VL
# B9: mAb-3全抗体 (antibody, human IgG1, kappa, V domains shown)
# VH: B1 VH with T28A, T30S, Y32F, Q62K, K63H, Q65L, Q100F, Y102K
# VL: B6 VL
# B10: mAb-5全抗体 (antibody, human IgG1, kappa, V domains shown)
# VH: B1 VH with Y27F, T28A, Q62D, K63Q, L64F, Q65I, Q100V, Y102R, F103L
# VL: B6 VL
# B11: mAb-6全抗体 (antibody, human IgG1, kappa, V domains shown)
# VH: B1 VH with T28S, Q62K, K63Q, L64F, Q65K, Q100V, Y102R, F103L
# VL: EIVMTQSPATLSVSPGERATLSCRASQDISISLGWFQQKPGQAPRPLIYGWNTRATGVPARFSGSGSGTDFTLTISSLQSEDFAVYYCQQYSDPFLTFGGGTKVEIKR
# B12: mAb-7全抗体 (antibody, human IgG1, kappa, V domains shown)
# VH: B1 VH with R31S, Q62K, K63N, Q100V, Y102R, F103L
# VL: B11 VL
# Target: T1, 人皮肤成纤维细胞(HDF)上的IL-17RA (UniProt Q96F46 33-866, limits assumed)
# T1 sequence (looked up): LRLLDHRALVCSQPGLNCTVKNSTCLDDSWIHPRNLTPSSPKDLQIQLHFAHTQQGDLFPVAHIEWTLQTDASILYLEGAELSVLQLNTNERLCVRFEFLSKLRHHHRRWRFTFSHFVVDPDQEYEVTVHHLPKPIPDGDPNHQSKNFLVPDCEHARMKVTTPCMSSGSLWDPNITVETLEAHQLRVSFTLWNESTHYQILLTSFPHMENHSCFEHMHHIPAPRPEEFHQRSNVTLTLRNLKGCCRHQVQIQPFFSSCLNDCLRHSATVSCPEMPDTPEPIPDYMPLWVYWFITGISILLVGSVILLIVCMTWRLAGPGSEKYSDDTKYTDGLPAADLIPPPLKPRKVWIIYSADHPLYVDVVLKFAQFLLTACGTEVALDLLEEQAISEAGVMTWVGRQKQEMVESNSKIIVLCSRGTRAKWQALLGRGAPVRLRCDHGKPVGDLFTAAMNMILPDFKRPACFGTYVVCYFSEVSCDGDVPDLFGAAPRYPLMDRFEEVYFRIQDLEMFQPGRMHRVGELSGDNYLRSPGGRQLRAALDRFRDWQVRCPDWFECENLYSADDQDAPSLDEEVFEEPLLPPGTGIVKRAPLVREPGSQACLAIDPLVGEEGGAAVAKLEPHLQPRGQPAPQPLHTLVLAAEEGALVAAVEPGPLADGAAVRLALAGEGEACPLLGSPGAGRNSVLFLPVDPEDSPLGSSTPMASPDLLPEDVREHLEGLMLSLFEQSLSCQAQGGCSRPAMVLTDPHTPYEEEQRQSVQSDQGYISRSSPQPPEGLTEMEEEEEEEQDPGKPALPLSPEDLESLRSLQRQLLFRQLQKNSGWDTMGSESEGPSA
# Experiment: cell-based or functional assay
row,Binder,抑制HDF细胞产生IL-6 IC50(ng/ml) [ng/mL]
1,B1,117
2,B2,24.8
3,B3,13.5
4,B4,36.4
5,B5,60.8
6,B6,35.8
7,B7,28.4
8,B8,22.7
9,B9,33.4
10,B10,22.9
11,B11,33.4
12,B12,29.7
